The source of these data is publication doi:10.1101/2020.10.13.338178.

Assay [1] addresses T1, Plasmodium vivax M17 aminopeptidase (Plasmodium vivax) (UniProt A5K3U9).
T1 sequence (A5K3U9 74-621, looked up): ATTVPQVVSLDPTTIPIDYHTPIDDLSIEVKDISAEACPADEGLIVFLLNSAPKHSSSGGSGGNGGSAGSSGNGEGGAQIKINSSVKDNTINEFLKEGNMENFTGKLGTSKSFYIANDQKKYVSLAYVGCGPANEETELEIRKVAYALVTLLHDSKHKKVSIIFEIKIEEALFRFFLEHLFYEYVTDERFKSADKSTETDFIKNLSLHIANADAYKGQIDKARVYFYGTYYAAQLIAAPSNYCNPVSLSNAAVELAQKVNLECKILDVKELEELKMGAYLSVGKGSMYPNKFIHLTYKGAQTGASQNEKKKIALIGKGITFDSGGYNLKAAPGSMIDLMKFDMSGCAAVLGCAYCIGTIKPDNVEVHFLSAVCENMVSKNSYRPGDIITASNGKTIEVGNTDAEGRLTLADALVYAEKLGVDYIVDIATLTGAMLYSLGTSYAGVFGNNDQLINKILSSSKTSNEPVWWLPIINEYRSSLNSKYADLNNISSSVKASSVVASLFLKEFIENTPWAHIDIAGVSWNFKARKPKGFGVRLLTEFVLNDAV

In assay [2] the target is Plasmodium berghei M17 aminopeptidase (Plasmodium berghei).
Assay [3] addresses T2, Plasmodium falciparum M17 leucine aminopeptidase (Plasmodium falciparum) (UniProt Q8IL11).
T2 sequence: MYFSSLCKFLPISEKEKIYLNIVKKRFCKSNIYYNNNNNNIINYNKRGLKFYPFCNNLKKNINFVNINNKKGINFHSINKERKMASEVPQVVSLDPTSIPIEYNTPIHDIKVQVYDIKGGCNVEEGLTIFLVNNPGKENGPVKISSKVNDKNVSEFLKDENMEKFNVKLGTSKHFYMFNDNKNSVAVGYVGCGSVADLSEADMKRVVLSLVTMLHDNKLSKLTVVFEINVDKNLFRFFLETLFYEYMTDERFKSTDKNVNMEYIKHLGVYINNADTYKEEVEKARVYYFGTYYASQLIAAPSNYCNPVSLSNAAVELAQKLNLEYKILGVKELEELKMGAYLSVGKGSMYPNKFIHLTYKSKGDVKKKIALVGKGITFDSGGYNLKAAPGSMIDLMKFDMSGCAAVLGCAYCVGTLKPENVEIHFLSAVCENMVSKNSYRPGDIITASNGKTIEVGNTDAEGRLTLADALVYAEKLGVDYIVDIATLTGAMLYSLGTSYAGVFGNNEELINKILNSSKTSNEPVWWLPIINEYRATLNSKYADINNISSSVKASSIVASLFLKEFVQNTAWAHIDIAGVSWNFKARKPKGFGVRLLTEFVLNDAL

For assay [4], the target named is Plasmodium berghei M1 aminopeptidase (Plasmodium berghei).
The target of assay [5] is Plasmodium vivax M1 aminopeptidase (Plasmodium vivax).

No end group written: not given here. *: point of attachment. AMC = Cc1cc(=O)oc2cc(N*)ccc12

Turning to “Leucine-Leucine-7-amido-4-methyl-coumarin (peptide)”, the Km of hydrolysis (release of NHMec, Michaelis-Menten kinetics, 1 mM CoCl2) in assay [1] was 32.9 µM; in assay [2], 25 µM; in assay [3], 30.8 µM. Further, the Km of hydrolysis (release of NHMec, Michaelis-Menten kinetics) in assay [4] worked out at 28.4 µM; in assay [5], 27.9 µM.

Regarding LLLL-{AMC} [Leucine-Leucine-Leucine-Leucine-7-amido-4-methyl-coumarin], the Km of hydrolysis (release of NHMec, Michaelis-Menten kinetics, 1 mM CoCl2) came to 22.6 µM in assay [1], 4.6 µM in assay [2] and 6.9 µM in assay [3]. The Km of hydrolysis (release of NHMec, Michaelis-Menten kinetics) in assay [4] was found to be 33.9 µM; in assay [5], 41.5 µM.
